Assay [1] addresses T1, CD2 (human, UniProt P06729).
Assay [2] has as its target T1, CD2. The source holds these as a separate data set.
Target sequence in this assay (P06729 25-351): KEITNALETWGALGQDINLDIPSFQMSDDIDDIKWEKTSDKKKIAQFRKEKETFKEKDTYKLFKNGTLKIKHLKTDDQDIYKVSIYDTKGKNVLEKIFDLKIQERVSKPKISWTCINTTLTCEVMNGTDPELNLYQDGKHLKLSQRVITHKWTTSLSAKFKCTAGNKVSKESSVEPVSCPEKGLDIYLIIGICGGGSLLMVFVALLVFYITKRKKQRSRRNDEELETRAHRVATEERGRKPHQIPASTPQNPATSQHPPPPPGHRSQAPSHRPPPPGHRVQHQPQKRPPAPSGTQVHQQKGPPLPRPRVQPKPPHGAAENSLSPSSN
The target in assay [3] is T1, CD2. Description: Jurkat cell binding assay, microscopy. Here is the method:
M57/CHO cells, P24/CHO cells and CHO cells (1 ×10^5) were added to separate wells of a 6-well plate (Corning) and washed twice with RPMI Complete Medium. Jurkat cells (CD2^+), obtained as a gift from Dr. Timothy Springer (Dana Farber Cancer Inst., Boston, Mass.) were washed three times with a solution of RPMI, 10% FCS, 4 mM L-glutamine, and then 5 ×10^6 cells were added to each well and incubated for 4 hours at 0° C. Cells were then washed gently three times with RPMI and examined under the microscope at 40X and 100X magnification for cell-cell binding.
The M100/CHO, M101/CHO and M102/CHO transfectants were subjected to a Jurkat cell binding assay, as described in Example 4 above.

As for anti-CD2 monoclonal antibody TS2/18, the inhibition of PHA dependent PBL proliferation, optimal PHA in the assay with CD2 [1] came out at 20%.

The molecule LFA3TIP (Fc fusion) gave an inhibition of PHA dependent PBL proliferation, suboptimal PHA (0.1 µg/ml) in the assay with CD2 [2] of 70%. In addition, in the assay with CD2 [1], the inhibition of PHA dependent PBL proliferation, optimal PHA amounted to 41%.

B1: M100 deletion mutant of LFA-3 (ligand)
chain: FSQQIYGVVYDEDEYEMESPNITDTMKFFLYVLESLPSPTLTCALTNGSIEVQCMIPEHYNSHRGLIMYSWDCPMEQCKRNSTSIYFKMENDLPQKIQCTLSNPLFNTTSSIILTTCIPSSGHSRHRYALIPIPLAVITTCIVLYMNGILKCDRKPDRTNSN
With B1, in the assay with CD2 [3], the binding result is on record as “no binding”.

B2: M57 deletion mutant of LFA-3 (ligand)
chain: FSQQIYGVVYGNVTFHVPSNVPLKEVLWKKQKDKVAELENSEFRAFSSFKSLTIYNLTSSDEDEYEMESPNITDTMKFFLYVLESLPSPTLTCALTNGSIEVQCMIPEHYNSHRGLIMYSWDCPMEQCKRNSTSIYFKMENDLPQKIQCTLSNPLFNTTSSIILTTCIPSSGHSRHRYALIPIPLAVITTCIVLYMNGILKCDRKPDRTNSN
As to B2, the binding result with CD2 [3] was “no binding”.

B3: M101 deletion mutant of LFA-3 (ligand)
chain: FSQQIYGVVYGNVTFHVPSNVPLKEVLWKKQKDKVAELENSEFRAFSSFKNRVYLDTVSGSLTIYNLTSSWDCPMEQCKRNSTSIYFKMENDLPQKIQCTLSNPLFNTTSSIILTTCIPSSGHSRHRYALIPIPLAVITTCIVLYMNGILKCDRKPDRTNSN
For B3, the binding result with CD2 [3] is listed as “binds”.

B4: M102 deletion mutant of LFA-3 (ligand)
chain: FSQQIYGVVYGNVTFHVPSNVPLKEVLWKKQKDKVAELENSEFRAFSSFKNRVYLDTVSGSLTIYNLTSSDEDEYEMESPNITDTMKFFLYVLESLPSPTLTCALTNGSIEVQCMIPEHYNSHRGLIMYSSGHSRHRYALIPIPLAVITTCIVLYMNGILKCDRKPDRTNSN
For B4, in the assay with CD2 [3], the binding result was “binds”.

Values taken from US5728677, “Methods of inhibiting T-cell dependent proliferation of peripheral blood lymphocytes using the CD2-binding domain of lymphocyte function associated antigen 3” (Biogen, Inc., dated 1998).
